# From paper PMC6274716
# Non-standard residues stand in square brackets, D forms with d. *: point of attachment. Biotin = O=C1N[C@H]2[C@H](CS[C@H]2CCCCC(=O)*)N1; pT = C[C@@H](OP(=O)(O)O)[C@H](N)C(=O)O
# What was measured:
# Test in all cases: ELISA; competition: FHA clone binding to immobilized phosphorylated Akt1 peptide in the presence of free phosphorylated peptide; IC50
# FHA variant B3 (yeast) = molecular target: FHA variant B3 (yeast)
# [1] = molecular target: FHA variant E12 (Akt1-pTBD) (yeast)
# FHA variant H11 (yeast) = molecular target: FHA variant H11 (yeast)
# FHA variant E1 (yeast) = molecular target: FHA variant E1 (yeast)
binder,measurement,setting,value
Biotin-KDGATMK[pT]FCGTPEY-NH2 (not fully specified (residue 12)) [Akt1-pT308 peptide],IC50,FHA variant B3 (yeast),100000 nM
same,IC50,[1],45 nM
same,IC50,FHA variant H11 (yeast),90 nM
same,IC50,FHA variant E1 (yeast),1950 nM
